In article PMC2920948, “Structural Comparison of Human Mammalian Ste20-Like Kinases” (PLoS ONE, 2010):

Molecular target: the molecule itself
Test: AUC; sedimentation velocity; 30 µM unphosphorylated protein in 50 mM HEPES pH 7.5, 100 mM NaCl; 45,000 rpm; c(s) analysis with SEDFIT; monomer and dimer peaks

B1: MST4 kinase domain (residues 1-300), unphosphorylated (domain or fragment)
chain: not shown
notes: MST4 (mammalian Ste20-like kinase 4), human, residues 1-300 with the kinase domain, cloned from a Mammalian Gene Collection clone into pLIC-SGC1; Phosphorylation was removed with lambda-phosphatase; also called mammalian Ste20-like kinase 4; source: E. coli BL-21(DE3)-R3-pRARE2, purified (Ni-NTA, TEV cleavage, lambda-phosphatase, Superdex 200 SEC, MonoQ); not shown: His6, N-terminal, cleaved
In the case of B1, the “stoichiometry N” value is reported as 2.
